# Patent publication US8735341
# System: TAT-mMDH-eGFP fusion protein
substance,measurement,value
mitochondrial processing peptidases in the matrix contents of rat liver mitochondria,cleavage of the mMDH signal sequence after incubation with mitochondrial matrix contents (gel),The matrix signal peptidase progressively cleaved the mMDH signal sequence at two sites yielding two cleavage products of an estimated molecular mass of 32 kDa and 28.9 kDa
